# According to article PMC9396398, “Crystal structure of Ankyrin-G in complex with a fragment of Neurofascin reveals binding mechanisms required for integrity of the axon initial segment” (The Journal of Biological Chemistry, 2022):
# B1: Nfasc ankyrin-binding domain (ABD, residues 1187-1214) [not stated] / AnkG ANK repeats (residues 38-855, R1-24) [not stated] (parent complex)
# chain 1: SDDSLVDYGEGGEGQFNEDGSFIGQYTV
# chain 2: KSDANASYLRAARAGHLEKALDYIKNGVDVNICNQNGLNALHLASKEGHVEVVSELLQREANVDAATKKGNTALHIASLAGQAEVVKVLVTNGANVNAQSQNGFTPLYMAAQENHLEVVRFLLDNGASQSLATEDGFTPLAVALQQGHDQVVSLLLENDTKGKVRLPALHIAARKDDTKAAALLLQNDTNADIESKMVVNRATESGFTPLHIAAHYGNINVATLLLNRAAAVDFTARNDITPLHVASKRGNANMVKLLLDRGAKIDAKTRDGLTPLHCGARSGHEQVVEMLLDRAAPILSKTKNGLSPLHMATQGDHLNCVQLLLQHNVPVDDVTNDYLTALHVAAHCGHYKVAKVLLDKKANPNAKALNGFTPLHIACKKNRIRVMELLLKHGASIQAVTESGLTPIHVAAFMGHVNIVSQLMHHGASPNTTNVRGETALHMAARSGQAEVVRYLVQDGAQVEAKAKDDQTPLHISARLGKADIVQQLLQQGASPNAATTSGYTPLHLSAREGHEDVAAFLLDHGASLSITTKKGFTPLHVAAKYGKLEVASLLLQKSASPDAAGKSGLTPLHVAAHYDNQKVALLLLDQGASPHAAAKNGYTPLHIAAKKNQMDIATSLLEYGADANAVTRQGIASVHLAAQEGHVDMVSLLLSRNANVNLSNKSGLTPLHLAAQEDRVNVAEVLVNQGAHVDAQTKMGYTPLHVGCHYGNIKIVNFLLQHSAKVNAKTKNGYTPLHQAAQQGHTHIINVLLQNNASPNELTVNGNTALAIARRLGYISVVDTLKVVTEEIMTTTTITEKHKMNVPETMNEVLDMS
# B2: Nfasc 1198 to 1214 WT [not stated] / AnkG ANK repeats (residues 38-855, R1-24) [not stated] (parent complex)
# chain 1: GEGQFNEDGSFIGQYTV
# chain 2: B1 chain 2
# Variants of: B1
# Assay: ITC; parent: 220 nM
row,Variant,Kd
1,"chain 2 L306Q, chain 2 L339Q",2000 nM
2,chain 2 M311Q,1800 nM
3,"chain 2 R281A, chain 2 Q314A",670 nM
4,"chain 2 I240Q, chain 2 L273Q",3000 nM
5,chain 2 H347A,1700 nM
6,"chain 2 T302A, chain 2 N304A",2500 nM
7,chain 2 V245Q,1300 nM

# Variants of: B2
# Assay: ITC; parent: 340 nM
row,Variant,Kd
1,chain 1 N6A,260 nM
2,chain 1 I12Q,1000 nM
3,chain 1 Y15E,3200 nM
4,chain 1 T16A,460 nM
5,chain 1 D8A,1300 nM
6,chain 1 D8K,7700 nM
7,chain 1 E7A,9200 nM
8,chain 1 F11Q,1400 nM
9,chain 1 F5Q,7100 nM
